# According to publication PMC10066393, “Structural insights into the mechanism of leptin receptor activation” (Nature Communications, 2023):
# Key:
# [1] = molecular target: Myc-tagged full-length human LepR, wild type (human) (UniProt P48357)
# [2] = molecular target: Myc-tagged full-length human LepR, wild type (human) (UniProt P48357); remark: listed apart in the source
# [3] = molecular target: mouse LepR^D1-D7-zip (Mus musculus | not stated) (UniProt P48356)
# [4] = molecular target: T1, mouse leptin (Mus musculus, UniProt P41160 22-167); assay: SEC; mouse leptin incubated with purified LepR-zip overnight at 4 °C at a leptin:LepR ratio of 4:1; Superdex 200 in PBS pH 7.2; co-elution; details: both partners purified
# T1 construct: leptin, Mus musculus, produced in E. coli; Two leptin molecules stand in the 2:2 complex with the zippered LepR dimer; also called M. musculus leptin; source: Escherichia coli produced
# [5] = molecular target: T1, mouse leptin; assay: cryo-EM structure; SEC-purified leptin–LepR-zip complex cross-linked with 1 mM BS3, 1–2 mg/ml in PBS, 0.01% fluorinated octyl maltoside; single particle cryo-EM, AlphaFold models docked and refined; details: both partners purified
# Chain of Myc-tagged full-length human LepR, wild type (human) (P48357 22-1165): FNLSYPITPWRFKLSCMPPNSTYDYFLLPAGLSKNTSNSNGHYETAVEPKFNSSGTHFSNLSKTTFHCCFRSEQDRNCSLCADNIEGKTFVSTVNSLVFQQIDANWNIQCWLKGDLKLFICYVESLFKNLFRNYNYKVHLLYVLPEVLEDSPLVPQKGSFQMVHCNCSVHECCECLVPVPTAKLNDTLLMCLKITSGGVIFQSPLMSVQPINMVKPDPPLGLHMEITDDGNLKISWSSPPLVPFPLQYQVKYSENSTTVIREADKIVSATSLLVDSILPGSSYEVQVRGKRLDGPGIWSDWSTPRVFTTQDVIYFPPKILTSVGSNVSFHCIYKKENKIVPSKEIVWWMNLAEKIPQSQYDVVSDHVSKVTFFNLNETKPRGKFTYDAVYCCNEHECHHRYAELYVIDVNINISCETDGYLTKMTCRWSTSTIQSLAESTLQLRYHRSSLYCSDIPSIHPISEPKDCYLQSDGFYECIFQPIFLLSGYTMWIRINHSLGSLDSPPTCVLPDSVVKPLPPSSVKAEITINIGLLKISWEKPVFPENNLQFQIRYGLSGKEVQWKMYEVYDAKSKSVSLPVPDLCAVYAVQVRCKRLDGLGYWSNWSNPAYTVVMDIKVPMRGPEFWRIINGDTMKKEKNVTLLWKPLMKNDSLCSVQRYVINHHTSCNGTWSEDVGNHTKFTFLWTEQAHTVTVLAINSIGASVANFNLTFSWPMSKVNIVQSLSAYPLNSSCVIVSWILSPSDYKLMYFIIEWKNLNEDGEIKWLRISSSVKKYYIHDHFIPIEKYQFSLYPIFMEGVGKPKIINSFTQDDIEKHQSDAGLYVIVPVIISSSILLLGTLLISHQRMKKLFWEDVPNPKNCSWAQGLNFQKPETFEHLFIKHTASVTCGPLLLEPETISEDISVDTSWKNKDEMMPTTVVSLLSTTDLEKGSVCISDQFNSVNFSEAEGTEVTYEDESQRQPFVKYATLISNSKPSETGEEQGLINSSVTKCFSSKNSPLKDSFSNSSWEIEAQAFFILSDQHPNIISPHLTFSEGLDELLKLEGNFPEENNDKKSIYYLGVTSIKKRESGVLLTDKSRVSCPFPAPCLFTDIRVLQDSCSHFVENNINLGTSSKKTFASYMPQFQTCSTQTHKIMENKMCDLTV
# Chain of leptin S117A used on cells expressing mouse LepR (P41160 22-167 S138A, stated change not applied): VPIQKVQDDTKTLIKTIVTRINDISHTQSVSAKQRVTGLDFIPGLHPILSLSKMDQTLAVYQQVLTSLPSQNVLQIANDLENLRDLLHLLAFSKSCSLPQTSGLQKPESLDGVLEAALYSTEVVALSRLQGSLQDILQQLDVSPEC
# T1 sequence (P41160 22-167): as the sequence (P41160 22-167 S138A, stated change not applied) above, with A117S counted along it
molecule,measurement,setting,value
human leptin D23L/S117N (ligand),"phospho-STAT3 left, immunoblots, HEK-293T cells stably expressing hLepR, 10 nM WT leptin plus the variant, relative to WT leptin alone (% of WT leptin alone)",[1],50
same,"reduction of phospho-SHP2 and phospho-ERK, immunoblots, HEK-293T cells stably expressing hLepR, 10 nM WT leptin plus the variant, 20 min",[1],90 % reduction
human leptin K33A/Q34A/K35A (ligand),"maximal phospho-STAT3 response, dose-response by phospho-flow cytometry, LepR-expressing HEK 293T cells, percent of WT leptin (% of WT leptin)",[2],75
human leptin S117N (ligand),"maximal phospho-STAT3 response, dose-response by phospho-flow cytometry, LepR-expressing HEK 293T cells, percent of WT leptin (% of WT leptin)",[2],45
leptin S117A used on cells expressing mouse LepR (from UniProt P41160 22-167) (ligand),"activation of ERK in cells expressing mouse LepR (the whole receptor on cells, not the zip construct)",[3],5%
same,"activation of SHP2 in cells expressing mouse LepR (the whole receptor on cells, not the zip construct)",[3],20%
same,"activation of STAT3 in cells expressing mouse LepR (the whole receptor on cells, not the zip construct)",[3],60%
"mouse LepR^D1-D7-zip (receptor, leptin receptor (LepR), Mus musculus, complete extracellular domain D1-D7, residues 23-839; GCN4 leucine zipper, C-terminal, stands in place of the transmembrane domain; Secreted with an N-terminal HA signal peptide from the vector pD649; Dimerised by the leucine zipper; source: Expi293F, transiently transfected, purified from supernatant (Ni-NTA, SEC)) NLAYPISPWKFKLFCGPPNTTDDSFLSPAGAPNNASALKGASEAIVEAKFNSSGIYVPELSKTVFHCCFGNEQGQNCSALTDNTEGKTLASVVKASVFRQLGVNWDIECWMKGDLTLFICHMEPLPKNPFKNYDSKVHLLYDLPEVIDDSPLPPLKDSFQTVQCNCSLRGCECHVPVPRAKLNYALLMYLEITSAGVSFQSPLMSLQPMLVVKPDPPLGLHMEVTDDGNLKISWDSQTMAPFPLQYQVKYLENSTIVREAAEIVSATSLLVDSVLPGSSYEVQVRSKRLDGSGVWSDWSSPQVFTTQDVVYFPPKILTSVGSNASFHCIYKNENQIISSKQIVWWRNLAEKIPEIQYSIVSDRVSKVTFSNLKATRPRGKFTYDAVYCCNEQACHHRYAELYVIDVNINISCETDGYLTKMTCRWSPSTIQSLVGSTVQLRYHRRSLYCPDSPSIHPTSEPKNCVLQRDGFYECVFQPIFLLSGYTMWIRINHSLGSLDSPPTCVLPDSVVKPLPPSNVKAEITVNTGLLKVSWEKPVFPENNLQFQIRYGLSGKEIQWKTHEVFDAKSKSASLLVSDLCAVYVVQVRCRRLDGLGYWSNWSSPAYTLVMDVKVPMRGPEFWRKMDGDVTKKERNVTLLWKPLTKNDSLCSVRRYVVKHRTAHNGTWSEDVGNRTNLTFLWTEPAHTVTVLAVNSLGASLVNFNLTFSWPMSKVSAVESLSAYPLSSSCVILSWTLSPDDYSLLYLVIEWKILNEDDGMKWLRIPSNVKKFYIHDNFIPIEKYQFSLYPVFMEGVGKPKIINGFTKDAIDKQQNDAGEELLSKNYHLENEVARLKK",binding result,[4],binds
"mouse LepR^D3-D7-zip (receptor, leptin receptor (LepR), Mus musculus, domains D3-D7, residues 330-839; GCN4 leucine zipper, C-terminal, stands in place of the transmembrane domain; Secreted with an N-terminal HA signal peptide from the vector pD649; Dimerised by the leucine zipper; source: Expi293F, transiently transfected, purified from supernatant (Ni-NTA, SEC)) DVVYFPPKILTSVGSNASFHCIYKNENQIISSKQIVWWRNLAEKIPEIQYSIVSDRVSKVTFSNLKATRPRGKFTYDAVYCCNEQACHHRYAELYVIDVNINISCETDGYLTKMTCRWSPSTIQSLVGSTVQLRYHRRSLYCPDSPSIHPTSEPKNCVLQRDGFYECVFQPIFLLSGYTMWIRINHSLGSLDSPPTCVLPDSVVKPLPPSNVKAEITVNTGLLKVSWEKPVFPENNLQFQIRYGLSGKEIQWKTHEVFDAKSKSASLLVSDLCAVYVVQVRCRRLDGLGYWSNWSSPAYTLVMDVKVPMRGPEFWRKMDGDVTKKERNVTLLWKPLTKNDSLCSVRRYVVKHRTAHNGTWSEDVGNRTNLTFLWTEPAHTVTVLAVNSLGASLVNFNLTFSWPMSKVSAVESLSAYPLSSSCVILSWTLSPDDYSLLYLVIEWKILNEDDGMKWLRIPSNVKKFYIHDNFIPIEKYQFSLYPVFMEGVGKPKIINGFTKDAIDKQQNDAGEELLSKNYHLENEVARLKK",binding result,[5],binds
